Target: RNaseH2 complex (RNaseH2A/RNaseH2B/RNaseH2C), wild type;PCNA (Homo sapiens;Homo sapiens, UniProt O75792;Q5TBB1;Q8TDP1;P12004 1-299;1-312;1-164;1-261, |)
Test: EMSA; 100 nM PCNA; 2 mM MgCl2; 100 nM DNA; 0.4-1.0 uM RNaseH2; PCNA raises binding (p 0.025, 0.010, 0.003 at 0.6, 0.8, 1.0 uM; ns at 0.4 uM); EMSA: 25 mM Tris pH 7.5, 100 mM NaCl, 10% glycerol, 2 mM MgCl2, 30 min at RT; 5% native TBE-PAGE at 4 C. Cryo-EM structures (8YJH-8YJZ) carry endogenous DNA of
Conditions: protein: recombinant;recombinant; tags: N-terminal 6xHis (each subunit as stated);N-terminal 6xHis; copies: 1;1;1;3; blunt

Sequence of RNaseH2 complex (RNaseH2A/RNaseH2B/RNaseH2C), wild type;PCNA (O75792 whole entry, chain 1 of 4): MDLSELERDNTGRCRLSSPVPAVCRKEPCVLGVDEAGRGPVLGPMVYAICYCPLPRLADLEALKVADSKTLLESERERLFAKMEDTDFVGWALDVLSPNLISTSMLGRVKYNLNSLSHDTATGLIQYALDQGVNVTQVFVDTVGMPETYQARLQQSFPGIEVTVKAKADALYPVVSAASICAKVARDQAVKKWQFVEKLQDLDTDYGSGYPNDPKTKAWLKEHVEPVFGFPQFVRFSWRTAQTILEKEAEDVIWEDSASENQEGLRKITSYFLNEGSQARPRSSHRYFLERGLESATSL
Sequence of RNaseH2 complex (RNaseH2A/RNaseH2B/RNaseH2C), wild type;PCNA (Q5TBB1 whole entry, chain 2 of 4): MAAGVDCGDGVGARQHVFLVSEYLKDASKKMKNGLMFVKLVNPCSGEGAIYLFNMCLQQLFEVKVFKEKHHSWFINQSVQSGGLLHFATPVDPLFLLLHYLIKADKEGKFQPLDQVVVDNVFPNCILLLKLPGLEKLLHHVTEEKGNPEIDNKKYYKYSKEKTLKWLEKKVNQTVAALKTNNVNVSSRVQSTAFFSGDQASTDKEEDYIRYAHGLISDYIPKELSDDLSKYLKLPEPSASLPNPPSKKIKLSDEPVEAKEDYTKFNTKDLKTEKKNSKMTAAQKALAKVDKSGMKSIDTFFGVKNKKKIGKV
Sequence of RNaseH2 complex (RNaseH2A/RNaseH2B/RNaseH2C), wild type;PCNA (Q8TDP1 whole entry, chain 3 of 4): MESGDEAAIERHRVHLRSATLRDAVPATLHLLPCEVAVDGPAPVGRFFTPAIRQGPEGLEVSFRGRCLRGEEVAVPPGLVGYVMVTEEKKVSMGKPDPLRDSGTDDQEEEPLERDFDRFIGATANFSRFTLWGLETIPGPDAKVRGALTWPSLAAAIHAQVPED
Sequence of RNaseH2 complex (RNaseH2A/RNaseH2B/RNaseH2C), wild type;PCNA (P12004 whole entry, chain 4 of 4): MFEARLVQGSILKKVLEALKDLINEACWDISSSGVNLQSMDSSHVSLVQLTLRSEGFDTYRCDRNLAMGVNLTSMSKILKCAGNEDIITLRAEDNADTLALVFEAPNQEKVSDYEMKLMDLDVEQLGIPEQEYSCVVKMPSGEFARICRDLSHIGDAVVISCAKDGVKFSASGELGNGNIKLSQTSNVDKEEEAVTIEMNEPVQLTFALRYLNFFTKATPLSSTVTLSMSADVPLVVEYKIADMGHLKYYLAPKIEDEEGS

B1: 5'-FAM 20 bp dsDNA (dsDNA)
DNA 1: CGGTTATAGGTTCACGGGGT
DNA 2: ACCCCGTGAACCTATAACCG
B1: binds.
